Laboratory results from US20240247069A1 (Regeneron, published 2024).

Key:
mouse FGFR3b-ecto.mmH = target: T1, mouse FGFR3b-ecto.mmH (mouse, UniProt Q61851 21-801); experiment: Biacore SPR, 25 C, mmh-tagged FGFR3
T1 construct: also called moFGFR3b (mmh); monomeric mouse FGFR3b; not shown: mmh tag

human FGFR3b-ecto.mmH = target: T2, human FGFR3b-ecto.mmH (human, UniProt P22607 23-806); experiment: Biacore SPR, 25 C, mmh-tagged FGFR3
T2 construct: also called hFGFR3b (mmh); hFGFR3b-mmh; not shown: mmh tag
T2 sequence (P22607 other isoform, or with tags, fused parts or gaps): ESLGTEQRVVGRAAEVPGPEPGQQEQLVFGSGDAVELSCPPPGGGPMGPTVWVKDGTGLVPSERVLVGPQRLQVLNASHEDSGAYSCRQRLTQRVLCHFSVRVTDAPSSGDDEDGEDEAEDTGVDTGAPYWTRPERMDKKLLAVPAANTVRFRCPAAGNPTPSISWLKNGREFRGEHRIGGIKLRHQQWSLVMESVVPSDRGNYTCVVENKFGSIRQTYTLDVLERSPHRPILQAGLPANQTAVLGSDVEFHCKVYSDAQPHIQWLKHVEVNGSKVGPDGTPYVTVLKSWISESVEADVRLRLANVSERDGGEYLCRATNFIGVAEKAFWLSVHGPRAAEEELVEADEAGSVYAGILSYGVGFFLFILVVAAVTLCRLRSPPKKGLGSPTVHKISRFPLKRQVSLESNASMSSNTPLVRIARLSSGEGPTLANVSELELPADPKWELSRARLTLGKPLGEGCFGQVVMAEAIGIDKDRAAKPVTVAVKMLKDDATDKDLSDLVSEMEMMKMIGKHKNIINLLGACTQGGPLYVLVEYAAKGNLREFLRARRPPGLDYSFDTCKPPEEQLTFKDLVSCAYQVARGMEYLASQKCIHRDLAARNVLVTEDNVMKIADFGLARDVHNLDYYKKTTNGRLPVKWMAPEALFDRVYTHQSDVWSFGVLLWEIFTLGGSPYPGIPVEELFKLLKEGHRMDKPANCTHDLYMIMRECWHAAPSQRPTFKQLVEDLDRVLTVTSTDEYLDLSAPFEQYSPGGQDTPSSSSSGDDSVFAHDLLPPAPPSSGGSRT

T1 sequence (Q61851 other isoform, or with tags, fused parts or gaps): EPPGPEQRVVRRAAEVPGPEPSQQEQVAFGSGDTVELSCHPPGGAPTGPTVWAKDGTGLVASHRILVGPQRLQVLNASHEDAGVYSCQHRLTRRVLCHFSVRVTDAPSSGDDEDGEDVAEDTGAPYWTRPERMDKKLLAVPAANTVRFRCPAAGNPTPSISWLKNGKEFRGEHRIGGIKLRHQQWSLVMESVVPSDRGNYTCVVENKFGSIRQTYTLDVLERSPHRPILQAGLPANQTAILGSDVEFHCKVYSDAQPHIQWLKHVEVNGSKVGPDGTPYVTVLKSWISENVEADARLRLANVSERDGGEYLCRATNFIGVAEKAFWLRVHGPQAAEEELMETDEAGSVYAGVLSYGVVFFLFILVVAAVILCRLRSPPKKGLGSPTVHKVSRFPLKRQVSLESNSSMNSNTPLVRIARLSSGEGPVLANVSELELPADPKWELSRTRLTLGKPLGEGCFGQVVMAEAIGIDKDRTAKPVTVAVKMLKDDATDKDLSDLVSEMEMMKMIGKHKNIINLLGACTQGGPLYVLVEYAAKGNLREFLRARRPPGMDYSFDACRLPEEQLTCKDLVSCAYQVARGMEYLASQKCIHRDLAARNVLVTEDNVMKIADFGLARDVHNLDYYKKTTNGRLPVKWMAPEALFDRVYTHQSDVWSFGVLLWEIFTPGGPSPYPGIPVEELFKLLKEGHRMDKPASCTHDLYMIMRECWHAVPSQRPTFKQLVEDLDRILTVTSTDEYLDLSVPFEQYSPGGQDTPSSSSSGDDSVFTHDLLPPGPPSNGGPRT

Kd (mouse FGFR3b-ecto.mmH): 1.27 nM
Kd (human FGFR3b-ecto.mmH): 1.8 nM
B1: H4H30063P (antibody, V domains shown)
VH: QVQLQESGPGLVKPSETLSLTCTVSGDSINSYFWSWIRQLPGKELEWIGHIYSSGSTRYNPSLQSRVTISIDTSKNQFSLKLSSVTAADTAVYYCARGASAVDYWGQGTLVTVSS
VL: EIVLTQSPGTLSLSPGERATLSCRTSQSISSGYLAWYQQKPGQAPRLLIYGASRRATGIPDRFSGSGSGTDFTLTISRLEPEDFVVYYCQQYGSSPYTFGQGTKLEIKR
